Data: US20030028904A1

Target: His-tagged Dock180 (UniProt Q14185)
Experiment: cell-based or functional assay

ELMO1-GFP, sequence (Q8BPU7 whole entry): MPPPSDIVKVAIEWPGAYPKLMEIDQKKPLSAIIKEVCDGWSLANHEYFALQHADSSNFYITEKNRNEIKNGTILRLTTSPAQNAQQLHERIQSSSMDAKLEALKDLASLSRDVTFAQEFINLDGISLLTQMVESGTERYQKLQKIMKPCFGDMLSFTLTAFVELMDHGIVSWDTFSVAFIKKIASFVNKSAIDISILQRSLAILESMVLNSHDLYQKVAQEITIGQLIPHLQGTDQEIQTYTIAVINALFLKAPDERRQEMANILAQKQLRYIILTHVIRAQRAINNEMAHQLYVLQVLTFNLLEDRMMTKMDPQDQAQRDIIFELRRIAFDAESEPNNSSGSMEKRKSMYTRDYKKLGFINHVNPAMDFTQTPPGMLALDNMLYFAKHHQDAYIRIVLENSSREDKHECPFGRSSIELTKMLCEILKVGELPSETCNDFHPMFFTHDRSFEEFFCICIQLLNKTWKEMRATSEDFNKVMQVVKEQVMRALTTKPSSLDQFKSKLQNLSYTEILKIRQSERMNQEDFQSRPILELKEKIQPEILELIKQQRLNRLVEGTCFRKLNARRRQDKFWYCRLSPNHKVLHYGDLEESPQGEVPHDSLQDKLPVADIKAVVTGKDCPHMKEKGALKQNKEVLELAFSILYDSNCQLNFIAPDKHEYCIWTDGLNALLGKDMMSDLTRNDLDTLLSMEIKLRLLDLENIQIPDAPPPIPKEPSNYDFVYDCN

Substance: ELMO1-GFP (from UniProt Q8BPU7 1-727)
- bead uptake in the LR73 phagocytosis assay (GFP positive cells with engulfed particles): 2 fold
